Laboratory results as given in patent US20140087995A1 (published 2014).
Numbered stars: 1 amine (or outer) side, 2 acyl side, 3 side chain; on linkers, the order of the positions; unused ones are H or OH. Bridge positions count the residues as written; N and C are the ends. Side chains are listed from the residue outwards. Ends that are not written are not given here. * marks the point of attachment. C20 diacid = O=C(O)CCCCCCCCCCCCCCCCCCC(=O)*; γGlu = O=C(O)[C@H](CCC(=O)[*:2])N[*:1]

T1: human calcitonin receptor (human, UniProt P30988 25-474)
T1 sequence (looked up): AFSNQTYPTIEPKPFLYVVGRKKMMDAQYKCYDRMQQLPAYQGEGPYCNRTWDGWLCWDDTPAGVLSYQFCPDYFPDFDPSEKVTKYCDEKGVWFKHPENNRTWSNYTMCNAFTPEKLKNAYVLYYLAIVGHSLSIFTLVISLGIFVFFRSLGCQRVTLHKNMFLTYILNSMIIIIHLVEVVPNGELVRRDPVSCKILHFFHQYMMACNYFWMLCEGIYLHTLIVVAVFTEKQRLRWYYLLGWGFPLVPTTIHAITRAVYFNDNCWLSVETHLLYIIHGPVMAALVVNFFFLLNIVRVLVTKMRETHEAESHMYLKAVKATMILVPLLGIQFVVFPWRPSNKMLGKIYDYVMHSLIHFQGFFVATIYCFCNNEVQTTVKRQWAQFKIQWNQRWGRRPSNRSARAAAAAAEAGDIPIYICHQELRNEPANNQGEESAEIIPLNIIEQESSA

T2: human amylin receptor (amylin 3(a) receptor: human calcitonin receptor with RAMP-3) (human, UniProt P30988 25-474; O60896 24-148, limits assumed)
T2 sequence (looked up) 1: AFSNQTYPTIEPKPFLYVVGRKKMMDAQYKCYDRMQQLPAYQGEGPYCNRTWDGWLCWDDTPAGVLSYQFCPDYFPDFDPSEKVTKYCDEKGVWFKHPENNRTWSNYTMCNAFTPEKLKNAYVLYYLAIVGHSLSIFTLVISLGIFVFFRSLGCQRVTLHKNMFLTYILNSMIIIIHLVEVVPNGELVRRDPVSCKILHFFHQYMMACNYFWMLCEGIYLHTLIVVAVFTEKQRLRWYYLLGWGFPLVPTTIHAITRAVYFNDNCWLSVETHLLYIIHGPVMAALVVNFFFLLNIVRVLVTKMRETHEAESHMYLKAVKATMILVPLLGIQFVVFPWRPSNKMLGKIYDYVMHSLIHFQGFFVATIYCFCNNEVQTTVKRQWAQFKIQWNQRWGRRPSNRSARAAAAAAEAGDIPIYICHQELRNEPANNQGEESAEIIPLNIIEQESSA
T2 sequence (looked up) 2: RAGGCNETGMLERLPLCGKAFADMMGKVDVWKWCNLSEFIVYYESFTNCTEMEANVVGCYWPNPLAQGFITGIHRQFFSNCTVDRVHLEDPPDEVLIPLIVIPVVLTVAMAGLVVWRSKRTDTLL

T3: human calcitonin receptor (human, UniProt P30988 25-474)
T3 construct: whole, on cells; Assay used cell membranes of the transfected BHK cells; also called hCTR; hCT
T3 sequence (looked up): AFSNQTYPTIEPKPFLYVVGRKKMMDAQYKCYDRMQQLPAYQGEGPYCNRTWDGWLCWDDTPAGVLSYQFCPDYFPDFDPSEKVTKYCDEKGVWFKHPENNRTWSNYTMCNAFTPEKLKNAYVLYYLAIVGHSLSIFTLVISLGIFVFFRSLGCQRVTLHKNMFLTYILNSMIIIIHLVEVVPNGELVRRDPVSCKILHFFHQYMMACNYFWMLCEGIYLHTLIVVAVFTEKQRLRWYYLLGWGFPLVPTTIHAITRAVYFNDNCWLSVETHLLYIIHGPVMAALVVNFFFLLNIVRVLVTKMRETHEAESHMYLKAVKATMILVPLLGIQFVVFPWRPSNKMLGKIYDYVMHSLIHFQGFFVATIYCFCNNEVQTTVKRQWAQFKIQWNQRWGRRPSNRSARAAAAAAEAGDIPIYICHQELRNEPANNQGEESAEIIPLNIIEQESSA

T4: human amylin receptor (human, UniProt P30988 25-474; O60896 24-148, limits assumed)
T4 construct: whole, on cells; Assay used cell membranes of the Amylin 3(a)/CRE-luc BHK cells; the complex is called the human amylin receptor; also called hAmylin-R; hAmylinR
T4 sequence (looked up) 1: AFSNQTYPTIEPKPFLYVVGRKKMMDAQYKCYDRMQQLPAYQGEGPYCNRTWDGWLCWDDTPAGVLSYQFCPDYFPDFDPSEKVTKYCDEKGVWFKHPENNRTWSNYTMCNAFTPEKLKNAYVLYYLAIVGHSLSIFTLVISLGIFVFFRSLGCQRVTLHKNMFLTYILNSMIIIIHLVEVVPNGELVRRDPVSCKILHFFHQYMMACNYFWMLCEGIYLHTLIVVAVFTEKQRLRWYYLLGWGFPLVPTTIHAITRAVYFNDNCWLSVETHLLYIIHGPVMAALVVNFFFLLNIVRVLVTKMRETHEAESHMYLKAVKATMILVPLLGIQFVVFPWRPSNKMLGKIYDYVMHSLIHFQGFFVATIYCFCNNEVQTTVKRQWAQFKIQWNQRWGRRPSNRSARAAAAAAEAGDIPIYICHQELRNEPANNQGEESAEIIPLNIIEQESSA
T4 sequence (looked up) 2: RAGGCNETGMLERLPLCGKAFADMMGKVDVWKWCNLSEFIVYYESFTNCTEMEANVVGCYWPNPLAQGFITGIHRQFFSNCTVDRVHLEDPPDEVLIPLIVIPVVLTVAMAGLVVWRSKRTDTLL


Tests used:
[1] = target: T1, human calcitonin receptor; experiment: cell-based or functional assay
[2] = target: T2, human amylin receptor (amylin 3(a) …); experiment: cell-based or functional assay
[3] = target: T3, human calcitonin receptor; experiment: SPA radioligand competition (125I-calcitonin), membranes of BHK cells with human calcitonin receptor
Outline: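 BHK hCTR membranes 35 ng/μL + SPA beads 0.05 mg/well; buffer 50 mM Hepes pH 7.4, 1 mM CaCl2, 5 mM MgCl₂, 0.1% OA, 0.02% Tween20. 120 min, 25° C., shaking. Scintillation count; IC50 by one-site binding competition.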

[4] = target: T3, human calcitonin receptor; experiment: ratio IC50 hCTR / IC50 hAmylin-R of the two SPA competition assays; reference: human amylin receptor
Outline: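 Scintillation proximity competition binding on cell membranes at 35 ng/μL with SPA beads, in 50 mM Hepes pH 7.4, 1 mM CaCl2, 5 mM MgCl₂, 0.1% OA, 0.02% Tween20. Incubated 120 min at 25° C with shaking. IC₅₀ from one-site competition fit.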

human amylin receptor = target: T4, human amylin receptor; experiment: SPA radioligand competition (125I-rat amylin), membranes of BHK cells with human calcitonin receptor + RAMP-3
Protocol: The binding assay was performed using scintillation proximity assay (SPA) beads (RPNQ0001) from PerkinElmer and cell membranes from the Amylin 3(a)/CRE-luc cells (as described in Assay (II)) were used. Membranes were prepared in the following way; the cells were rinsed with PBS and incubated with Versene for approximately 5 min before harvesting. The cells were flushed with PBS and the cell-suspension was centrifuged for 5 min at 1000 rpm. Cells were homogenized (ultrathurrax) in a buffer containing 20 mM Na-HEPES and 10 mM EDTA (pH 7.4) and centrifuged at 20.000 rpm for 15 min. The resulting pellet was resuspended, homogenized and centrifuged (20.000 rpm, 15 min) in a buffer containing 20 mM Na-HEPES and 0.1 mM EDTA (pH 7.4, buffer 2). The resulting pellet was resuspended in buffer 2 and protein concentration was measured (BCA protein Assay, Pierce). The homogenate was kept cold during the whole procedure. The membranes were kept at −80° C. until use. The assay was performed in a 384 well Optiplate (PerkinElmer) in a total volume of 40 ul. Membranes were mixed with SPA beads. Final concentration of membranes 35 ng/μL final and SPA beads was 0.05 mg/well. Test-compounds were dissolved in DMSO and further diluted in assay buffer (50 mM Hepes, pH 7.4, 1 mM CaCl2, 5 mM MgCl₂, 0.1% OA and 0.02% Tween20). […] The final mixture was incubated with shaking at 400 rpm for 120 min at 25° C. prior to centrifugation (1500 rpm, 10 min). Samples were analyzed on TopCounter™ (Packard). The IC₅₀ was calculated using (one site binding competition analysis) GraphPad Prism5 as a measure of receptor affinity.

Row | Binder | Ratio hCT/hAmylin funct. [1] [ratio] | hAmylin-R funct. EC50 (pM) [2] [pM] | IC50 [3] [nM] | Ratio hCT/hAmylin binding [4] | IC50 (human amylin receptor) [nM]
1 | K([γGlu-γGlu-C20 diacid])CNTATCATQRLAEFLRHSSPNFGAIPSSTNVGRNTY-NH2 (disulfide 2-7; N-terminus assumed; SMILES CC[C@H](C)[C@H](NC(=O)[C@H](C)NC(=O)CNC(=O)[C@H](Cc1ccccc1)NC(=O)[C@H](CC(N)=O)NC(=O)[C@@H]1CCCN1C(=O)[C@H](CO)NC(=O)[C@H](CO)NC(=O)[C@H](Cc1c[nH]cn1)NC(=O)[C@H](CCCNC(=N)N)NC(=O)[C@H](CC(C)C)NC(=O)[C@H](Cc1ccccc1)NC(=O)[C@H](CCC(=O)O)NC(=O)[C@H](C)NC(=O)[C@H](CC(C)C)NC(=O)[C@H](CCCNC(=N)N)NC(=O)[C@H](CCC(N)=O)NC(=O)[C@@H](NC(=O)[C@H](C)NC(=O)[C@@H]1CSSC[C@H](NC(=O)[C@@H](N)CCCCNC(=O)CC[C@H](NC(=O)CC[C@H](NC(=O)CCCCCCCCCCCCCCCCCCC(=O)O)C(=O)O)C(=O)O)C(=O)N[C@@H](CC(N)=O)C(=O)N[C@@H]([C@@H](C)O)C(=O)N[C@@H](C)C(=O)N[C@@H]([C@@H](C)O)C(=O)N1)[C@@H](C)O)C(=O)N1CCC[C@H]1C(=O)N[C@@H](CO)C(=O)N[C@@H](CO)C(=O)N[C@H](C(=O)N[C@@H](CC(N)=O)C(=O)N[C@H](C(=O)NCC(=O)N[C@@H](CCCNC(=N)N)C(=O)N[C@@H](CC(N)=O)C(=O)N[C@H](C(=O)N[C@@H](Cc1ccc(O)cc1)C(N)=O)[C@@H](C)O)C(C)C)[C@@H](C)O, also called compound 88) | 8.5 | 773 | – | – | –
2 | K([γGlu-γGlu-C20 diacid])CNTATCATQRLAEFLRHSSPNFGAIPSSTNVGHNTY-NH2 (disulfide 2-7; N-terminus assumed; SMILES CC[C@H](C)[C@H](NC(=O)[C@H](C)NC(=O)CNC(=O)[C@H](Cc1ccccc1)NC(=O)[C@H](CC(N)=O)NC(=O)[C@@H]1CCCN1C(=O)[C@H](CO)NC(=O)[C@H](CO)NC(=O)[C@H](Cc1c[nH]cn1)NC(=O)[C@H](CCCNC(=N)N)NC(=O)[C@H](CC(C)C)NC(=O)[C@H](Cc1ccccc1)NC(=O)[C@H](CCC(=O)O)NC(=O)[C@H](C)NC(=O)[C@H](CC(C)C)NC(=O)[C@H](CCCNC(=N)N)NC(=O)[C@H](CCC(N)=O)NC(=O)[C@@H](NC(=O)[C@H](C)NC(=O)[C@@H]1CSSC[C@H](NC(=O)[C@@H](N)CCCCNC(=O)CC[C@H](NC(=O)CC[C@H](NC(=O)CCCCCCCCCCCCCCCCCCC(=O)O)C(=O)O)C(=O)O)C(=O)N[C@@H](CC(N)=O)C(=O)N[C@@H]([C@@H](C)O)C(=O)N[C@@H](C)C(=O)N[C@@H]([C@@H](C)O)C(=O)N1)[C@@H](C)O)C(=O)N1CCC[C@H]1C(=O)N[C@@H](CO)C(=O)N[C@@H](CO)C(=O)N[C@H](C(=O)N[C@@H](CC(N)=O)C(=O)N[C@H](C(=O)NCC(=O)N[C@@H](Cc1c[nH]cn1)C(=O)N[C@@H](CC(N)=O)C(=O)N[C@H](C(=O)N[C@@H](Cc1ccc(O)cc1)C(N)=O)[C@@H](C)O)C(C)C)[C@@H](C)O, also called compound 87) | 3.8 | 285 | – | – | –
3 | KCNTATCATQRLANFLRHSSPNFGAIPSSTNVGSNTY (C20 diacid-gGlu-2xOEG on the alpha amino group of the N-terminal residue (Lys1); disulfide Cys2-Cys7; C-terminal amide, Synthetic analogue; also called compound 24) | – | – | 102 | 90 | 1.14
